Experimental data as given in patent publication US7582478B2, “Cleaved serum response factor in cardiac diagnosis and therapy” (Baylor College of Medicine, priority 2003, dated 2009).
“Also recorded” adds a separate entry of the source. Where a SMILES comes first, the peptide text is derived from it. The star is where a group is joined. Cbz = O=C(OCc1ccccc1)*; CH2F = FC*

Key:
[1] = target: T1, active recombinant human caspase 3 (Homo sapiens, UniProt P42574); test: In vitro cleavage of recombinant SRF by active caspase 3, Western blot; assay type: biochemical; conditions: 20 μM Z-VAD-fmk, recombinant full length SRF
T1 construct: incubated with active recombinant human caspase 3; purchased BD PharMingen
T1 sequence (P42574 29-175 limits assumed): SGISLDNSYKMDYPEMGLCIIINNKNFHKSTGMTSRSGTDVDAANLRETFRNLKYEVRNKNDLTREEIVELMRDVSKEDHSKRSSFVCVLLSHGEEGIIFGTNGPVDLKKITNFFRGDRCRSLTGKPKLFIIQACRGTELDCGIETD
T1 sequence (P42574 176-277 limits assumed): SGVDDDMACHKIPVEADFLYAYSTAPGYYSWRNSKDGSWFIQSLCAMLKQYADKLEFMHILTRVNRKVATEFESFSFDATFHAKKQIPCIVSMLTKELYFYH
Description: Recombinant purified full length SRF was incubated with active recombinant human caspase 3 (BD PharMingen) in the presence or absence of 20 μM of Z-VAD-fmk (BD PharMingen), a caspase 3 inhibitor, in a reaction buffer (50 mM HEPES (pH 7.4), 100 mM NaCl, 1 mM EDTA, 0.1% CHAPS, 10 mM DTT and 10% glycerol). Reactions were analyzed by Western blot as described above.
To examine caspase 3 cleavage of SRF, we incubated activated caspase 3 with recombinant SRF in vitro. […] Caspase 3 cleaved SRF in a time-dependent manner, and this cleavage was inhibited by the caspase inhibitor, Z-VAD. […] In this case, the 55 kDa fragment tended to fall as a function of caspase 3 doses while there was a coincident increase into a 32 kDa fragment.

neonatal cardiomyocytes = test: Immunofluorescence analysis of cellular localization in transfected cardiomyocytes; assay type: cell-based, rat; conditions: transfected cardiac myocytes, anti-HA antibody
From the text: Visualization of transfected SRF and SRF-N cellular localization was implemented in neonatal cardiomyocytes attached to coverslips as described previously (Wei et al., 2001). Anti-HA antibody was used at 1:200.

[2] = tested on: skeletal α-actin SRE1 DNA probe; test: Electrophoretic gel mobility shift assay (EMSA); assay type: binding; conditions: recombinant protein
Description: DNA binding activity of SRF-N was assayed by EMSA with recombinant SRF-N and full length SRF and with the oligonucleotide probe corresponding to the proximal SRE1 of the skeletal a-actin promoter as previously described (MacLellan et al., 1994; Wei et al., 1998). Recombinant SRF and SRF-N were generated using pET-15b (Novagen) vector, which contains 6′histidine tag. These recombinant SRFs were expressed in BL21 (Stratagene) competent cells followed by Ni-NTA (nickel-nitrilotriacetic acid) resin purification.

cardiac α-actin promoter = test: Cardiac α-actin promoter luciferase reporter (αCA-luc) co-transfection; assay type: cell-based, rat; conditions: for effect on cardiac α-actin promoter activity (in words): neonatal rat cardiomyocytes
From the text: (§1) The construction and use of reporter plasmids containing the skeletal (SK-luc) and cardiac α-actin (aCA-luc) promoters linked to luciferase reporters were as previously described (MacLellan et al., 1994; Wei et al., 1998). The vector pCGN, a cytomegalovirus promoter-driven expression vector, was used to express full length SRF (residues 1-508) (pCGN-SRF), N-terminal SRF (residues 1-254) (pCGN-SRF-N), C-terminal SRF (residues 255-508) (pCGN-SRF-C) and SRFpm1 (pCGN-SRFpm1) containing triple point mutants within the MADS box (Prywes and Zhu, 1992).
(§2) C2C12 myoblasts and neonatal rat cardiomyocytes were cultured as previously described (MacLellan et al., 1994; Wei et al., 1998). Cells plated in 30-mm plates were transfected with […] of total plasmid DNA containing the reporter plasmid (SK-luc or aCA-luc) and the indicated expression plasmids. Transfections were performed using LipofectAMINE (Invitrogen) according to the manufacturer's instructions. Cells were harvested 40 h post-transfection and luciferase activity was measured as previously described (MacLellan et al., 1994).
(§3) To evaluate potential functional significance of the cleaved fragments, we overexpressed the SRF-N and SRF-C fragments via CMV promoter-driven expression plasmids co-transfected with cardiac α-actin and skeletal α-actin promoter reporter plasmids in cultured rat neonatal cardiomyocytes and C2C12 myoblasts. […] This inhibitory effect was very similar to that observed by a SRF negative mutant SRFpml (Wei et al., 1998; Prywes and Zhu, 1992; Johansen and Prywes, 1993).

[3] = tested on: skeletal α-actin promoter; test: Skeletal α-actin promoter luciferase reporter (SK-luc) co-transfection in C2C12 myoblasts; assay type: cell-based
From the text: as §1, §2, §3

Row | Molecule | cleavage of SRF by caspase 3 [1] | nuclear localization (neonatal cardiomyocytes) | binding to skeletal α-actin SRE1 DNA probe [2] | decrease of basal transcriptional activity of the cardiac α-actin promoter (cardiac α-actin promoter; cultured rat neonatal cardiomyocytes, CMV promoter-driven expression plasmid, 40 h post-transfection) | effect on cardiac α-actin promoter activity (in words) (cardiac α-actin promoter) | inhibition of the transcriptional activity of α-actin gene promoters (cardiac α-actin promoter; summary for myogenic cells (cardiomyocytes and C2C12 myoblasts together)) | effect on skeletal α-actin promoter activity (in words) [3] | decrease of basal transcriptional activity of the skeletal α-actin promoter ([3]; CMV promoter-driven expression plasmid, 40 h post-transfection)
1 | COC(=O)C[C@H](NC(=O)[C@H](C)NC(=O)[C@@H](NC(=O)OCc1ccccc1)C(C)C)C(=O)CF [Z-VAD, Z-VAD-fmk] (Cbz-Val-Ala-Asp(OMe)-CH2F) | blocked; also recorded: inhibited |  |  |  |  |  |  | 
2 | SRF-N: N-terminal SRF (residues 1-254), 32 kDa caspase 3 cleavage fragment (protein) MLPTQAGAAAALGRGSALGGSLNRTPTGRPGGGGGTRGANGGRVPGNGAGLGPGRLEREAAAAAATTPAPTAGALYSGSEGDSESGEEEELGAERRGLKRSLSEMEIGMVVGGPEASAAATGGYGPVSGAVSGAKPGKKTRGRVKIKMEFIDNKLRRYTTFSKRKTGIMKKAYELSTLTGTQVLLLVASETGHVYTFATRKLQPMITSETGKALIQTCLNSPDSPPRSDPTTDQRMSATGFEETDLTYQVSESD |  | localize to myogenic nuclei | retains DNA binding activity; also recorded: bound | 60% | repressed | 50-60% | repressed | 50%
3 | SRF-C: C-terminal SRF (residues 255-508), 32 kDa fragment (protein) SSGETKDTLKPAFTVTNLPGTTSTIQTAPSTSTTMQVSSGPSFPITNYLAPVSASVSPSAVSSANGTVLKSTGSGPVSSGGLMQLPTSFTLMPGGAVAQQVPVQAIQVHQAPQQASPSRDSSTDLTQTSSSGTVTLPATIMTSSVPTTVGGHMMYPSPHAVMYAPTSGLGDGSLTVLNAFSQAPSTMQVSHSQVQEPGGVPQVFLTASSGTVQIPVSAVQLHQMAVIGQQAGSSSNLTELQVVNLDTAHSTKSE |  |  |  |  | did not inhibit |  | did not inhibit | 
